Experiment: yeast display, Sf9 membrane polyspecificity reagent, FACS + sequencing; frameworks hold sequencing errors
Summary of the method: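 Synthetic nanobody libraries on Saccharomyces cerevisiae BJ5465 were galactose-induced for 36–48 hours, stained 1 hour at 4 °C with 10% biotinylated, detergent-solubilized Sf9 membrane reagent and enriched on streptavidin microbeads. FACS then separated cells into low and high (top ~1%) gates by anti-HA (expression) and streptavidin (reagent binding) fluorescence. Genes were colony-PCR amplified, MiSeq 2 × 250 sequenced and CDR-length filtered. A clone's polyreactivity label is that of its gate of origin.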

Row | Sequence | polyreactivity (PSR sort gate)
1 | QVQHVESGGGLVQAGGSLRLSSAPSGRTFAYYARGWYRQAPGKERELVAAISNGGSTYYADSVKGRFTISRDNAKNTVFLQMNSLKPEDTAVYFCNAYYSDLYDYWGQGTQVTVSS | low polyreactivity
2 | QVQLVESGGGLVQAGGSLRLSCAASGLIFPRYAMGWYRQAPGKETELVAAISRSGGNTYYADSVKGRFTISRDNAKNTVYLQINRLKPEDTAVYYCAAYLKVRSPRDGYDYWGQGTQVSVSS | high polyreactivity
3 | QVQLEESCGGLVQAGGSHRLICAASGPTIRYNGIGWYRQAPRKEREFLAAISWSGGSTYYADSVKGRFTISRDYAKNTVYLQMNSLKPEDTAVYYCNVDFHWQRFHHISADYDYWGLGTQVTVSS | high polyreactivity
4 | QVQLVESGGGLVQAGGSLRLSCAASGRTFTYYAMGWYRQAPGKERELVAAIRWTGDSTYYADSVKGRFTISRDNAKNTVYLQMNSLKPEDTAVYYCAKQARWQYDGGIRWYYYWGQGTQVTVSS | high polyreactivity
5 | QVQLVESGGGLVQAGGSLRLSCAASGSIFVPYAMGWYRPAPGKERELVAAISWSGGSTYYADSVKGRFTISRDNAKNTVYLHMNSLKPEDTAVYYCAVRFRSYTSYYWIDYEYWGQGTQVTVSS | high polyreactivity
6 | QVQLVESGGGLVQAGGSLRLSCAASGSTFYLYAMGWYRQAPGKEREFVAAISWSGGRTYYAHSVKGRFTISRDYAKNTVYLQMNSLKPEDTAVYYCAARRRYTWQYTSYDMGYWGQGTQVTVSS | low polyreactivity
7 | QVQLVESGGGLVQAGGSLRLSCAASGRTFQRYTMGWYRQAPGKERELVASISRSGGSTYYADSVKGRFTISRDNAKNTVYLQMNSLKPEDTAVYYCATRSLFWNRNHYRVSSPVLYDYWGQGTQVTVSS | high polyreactivity
8 | QVQLVESGGGLVQAGGSLRLSCAASGIIFYSYAMGWYRQAPGKERELVAAISWSGGSTYYADSVKGRFTISRDNAKNTVYLQMNSLKPEDTAVYYCAKDGYPYLSWLRSAHYDYWGQGTQVTVSS | low polyreactivity
9 | QVQLVESGGGLVQAGGSLRLSCAASGFTFVYYVMGWYRQAPGKERELVAAITRRGGNTYYADSVKGRFTISRDNAKNTVYLQMNSLKPEDTAVYYCNAVLRYGHGPYQKGDYWGQGTQVTVSS | high polyreactivity
10 | QVQLVESGGGLVQAGGSLRLSCAASGRTFIYYAMGWYRQAPGKERELVAVITGGGSTNYADSVKGRFTISRDNAKNTVYLQMNSLKPEDTAVYYCNRDYDASHTSREPLVGYDYWGQGTQVTVSS | low polyreactivity
11 | QVQLVESGGGLVQAGGSLRLSCAASGFIFGDYAMGWYRQAPGKERELVAAIRCSDSTTYYADSVKGRFTISRDNAKNTVYLQMNSLKPEDTAVYYCAAVGVVPRKKSARVYYWGQGTQVTVSS | low polyreactivity
12 | QFQLVESGGGLVQAGGSLRLSCAASGFTFPGYALGWSTQAPGKERELVAAINSSGGRTYYADSVKWRFTISRDNAKYTVYLQMNSLKPEDTEVYYCGATRWYIRARYNYWGHGTQVTVSS | high polyreactivity
13 | QVQLVDSGGGLVQAGGSLSLSCAASGITFYRYMGLYRQGPWKSRELVASITGRGGSTYYADSVKGRFTISRDNAKNTGYLEMNSLKPEDTAVYYCAAVFPTKSSTWYDYWGQGTQVTVSS | high polyreactivity
14 | QVQLVESGGGLVQAGGSLRLSCAASGRIFLPYAMGWYRQAPGKERELVAVITGRGGSTYYADAVKGRFTISRDNAKNTVYLQMNSLQPEDTAVYYCAAAYYRGRGYYWGQGTQVSVSS | high polyreactivity
15 | QVQLVESGGGLVQAGGSLRLSCAASGFTFNWYAMAWYRQAPGKERELVATINSGGSTYYADSVKGRFTISRDNAKNTVYLQMISLKPEDTAVYYCNRTHRRRYVKSAYIYWGQGTQVTVSS | low polyreactivity
16 | QVQLVESGGGLVQAGGSLRLSCAASGSIFRGYDMGWYRQAPGKERELVARISRGTGTHYADSVKGRFTISRDNAKNTVYLQMNSLKPEDTAVYYCAARYRYYPVTTRGYYWGQGTQVTVSS | high polyreactivity
17 | QVQLVESGGGLLQAGGSLRLSCAASGFIFRRYTLGWYRQAPGKERELVAAITSSGARTYYADSVKGRFTISRDNAKNTVYLQMTSLKPEDTAVYYCYTSYRKKKRYYYWGQGTQVTVSS | high polyreactivity
18 | QVQLVESGGGLVQAGGRLRLSCAATGRTFSYNAMGWYRQAPGKERELVAAITTNSGSRTYYADSVKGRFTISRDNAKNTVYLQMNSLKPEDTAVYYCAADGPVVSGYYWGQGTQVTVSS | high polyreactivity
19 | QVQLVESGGGLVQAGVSLRLSCAASGLTFKWNAMGWYRHAPGKEREFVAAITKRAGSTYYADSVKGRFTISRDNAKNTVYLQMNSLKPEDTAVYYCAADDGYFYARYDYWGHGTQVTVSS | low polyreactivity
20 | QVQLVESGGGLVQAGGSLRLSCAASGLTFRRYAMGWYRQAPGKVRELVAGISRGGSTYYADSVKGRFTISRDNAKNTVYLQMNSLKPEDTAVYYCAAYNRGTYPVQPVPYDMDYWGQGTQVTVSS | low polyreactivity
21 | QVQLVESGGGLVQAGGSLRLSCAASGRIFWAYAMGWYRQAPGKERELVADITSGGSTYYADSVKGRFTISRDNAKNNVYLQMNSLKPEDTAVYYCAVGSKWVDDSPEDEYWGQGTQVTVSS | low polyreactivity
22 | QVQLVESGGGLVQAGGILRLICAASGRIFKLNALGWYRQAPGKERELDAAITFSGGSTYYADSVKGRFRISRDNVNYTVYLQMNSMKPEYTGVYYCNAEFSNVELYYWGQGTHVTVSS | low polyreactivity

Row | Sequence | polyreactivity (PSR sort gate)
23 | QVQLVESGGGLVQAGGSLRLSCAASGRTFNVNAMGWYRQAPGIERELVATISSAASTNYADSVKGRFTISRDNAKNTVYLQMNSLKPEDTAVYYCNAAFYKEYYYWGQGTQVTVSS | low polyreactivity
24 | QVQLVESGGGLVQAGGSLRLSCAASGSIYYQYAMGWYRQAPGKERELVAAITYGGGSTYYADSVKGRFTISRDNAKNTVYLQMISLKPEDTAVYYCAKDLYHTVGRYDYWGQGTQVTVSS | low polyreactivity
25 | QVQLVESGGGLVQAGGSLRLSCAASGFTFPYYAMGWYRQALGKERELVAGISRGGSTYYADSVKGRFTISRDNAKNTVYLQMNSLKPEDTAVYYCAADRYIGQYTYYYWGQGTQVTVSS | high polyreactivity
26 | QVQLEESGGGLVHAGGSLRLSCAASGFTCDNYAMGWYRQAPGKERELVAAISNSGGRTYYADSVKGRFTISRDNAKNTVYLQMNSLKPEDTAVYYCTIFKDFDYWGQGTQVTVSS | high polyreactivity
27 | QVQLVESGGGLVQAGGSLRLSCAASGSTITGNTMGWYRQAPGKERELVAAITNGGSTYYADSVKGRFTISRDNAKNTVYLQMNSLKPEDTAVYYCAAESTFYGYDYWGQGTQVTVSS | high polyreactivity
28 | QVQLVESGGGLVQAGGSLRLSCAASGRIFAYNAMGWYRQAPGKERELVAAITWSGDSTYYADSVKGRFTISRDNAKNSVYLQMNSLKPVDTAVYYCATDALFKTSTRWKYDYWGQGTQVTVSS | low polyreactivity
29 | QVQLVESGGGLVQAGGSLRLSCAASGSTFYYYAMGWYRQAPGKERELVASISSAGNTNYADSVKGRFTISRDNAKNTVYLQMNSLKPEDTAVYYCAARYSGHPRYYYYWGQGTQVTVSS | low polyreactivity
30 | QVQLVESGGGLVQAGGSLRLSCAASGYTFGYNVMGWYRQAPGKERELVAVISSGGTTYYADSVKGRFTISRDNAKNTVYLQMNSLKPEDTAVYYCNKRSAYKFSTHYGYYYWGQGTQVNVSS | high polyreactivity
31 | QVQLVESGGGLVQAGGSLRLSCAASGIIFSDYAMGWYRQAPGKERELVAAISSNAGTTSYADSVKGRFTISRDNAKNTVYLQMNSLKPEDTAVYYCNADSSYPPGYDYCGQGTQVTVSS | low polyreactivity
32 | QVQLVESGGGLVQAGGSLRLSCAASGRIFTGNAMGWYRQAPGKERELVATISTGGSTNYADSVKGRFTISRDNAKNTVYLQMNSLKPEDTAVYYCAADTYYGYIIHVEYWGQGTQVTVSS | low polyreactivity
33 | QVQLVESGGGLVQAGGSLRLSCAASGYIFNYYAMGWYRQAPGKERELVAAISWDGTDTYYADSVKGRFTISRDNAKNTVYLQMNSLKPEDTAVYYCNADYDVYGWRNYWGQGTQVTVSS | low polyreactivity
34 | QVQLVESGGGLVQAGGSLRLSCAASGITFYWYAMGWYRQAPGKERELVAAISSGGSTYYADSVKGRFTISRDNAKNTVYLQMNSLKPEDTAVYYCAAAFRYTPLSDHGYWGQGTQVTVSS | high polyreactivity
35 | QVQLVESGGGLVQAGGSLRLSCAASGRIFQGYAMVWYRQAPGKERELVARITSGSNTNYADSVKGRFTISRDNAKNTVYLQMNSLKPEDTAVYYCAKEPVGSVRYGRFQQDDYWGQGTQVTVSS | low polyreactivity
36 | QVQLVESGGGLVQAGGSLRLSCAASGSIFYVYAMVWYRQAPGKEREFVASIRTSGSSTYADSVKGRFTISRDNAKNTVYLQMNSLKPEDTAVYYCAAGSITVFWKRTGYRWRGYDYWGQGTQVTVSS | low polyreactivity
37 | QVQLVESGGGLVQAGGSLRLSCAASGRTFWTKAMGWYRQAPGKEREFVAAISWRGASTFYADSVKGRFTISRDNAKNTVYLQMNSLKPEDTAVYYCAAESYIGKYGSYDYWGQGTQVTVSS | low polyreactivity
38 | QVQLQESGDGLVQAVGSLRLSCAASGNISGDYYMGWYRQAPGKERELVAGIDAFGSSTNYADCVKGRFTISRDNAKNTVYLQMNRLKPEDTAVYYCAARPDGDRLFSYWGQGTQVTVSS | low polyreactivity
39 | QVQLVESGGGLVQAGGSLRLSCAASGRIFHSYAMGWYRQAPGKERELVAAISSGGNTYYADSVKGRFTISRDNAKNTVYLQMNSLKPEDTAVYDCARDWDFLYDGFHSDSYEYWGQGTQVTVSS | low polyreactivity
40 | QVQLVQSGGGLVQAGGSLRLSSAASGSTFWANAMGWYRQAPGKERELVAAISVRGGNTYYADSVKGRFTISRDNAKNTVYLQMNSLKPEDTAVYYCAARPISWTSYYDYWGQGTQVSVSS | high polyreactivity
41 | QVQLVESGGGLVHAGGSLRLSCAASGFTFVFYVMGWYRQAPGQERELVAGISGRGASTYYADSVKGRFTISRDNAKNTVYLQMNSLIPEDTAVYYCNAVHWGGTYWGLDYWGQGTQVTVSS | low polyreactivity
42 | QVQLVESGGGLVQAGGSLRLSCAASGRIYRYVMGWYRQAPGKERELVATITGRGGSTYYADSVKGRFTISRDNAKHTVYLQMNILKPEDTAVYYCAAAGRGSWTTYRFDYWGQGTQVTVSS | high polyreactivity
43 | QVQLVESGGALVQAGGSLRLSCAASARTFIQNGMGWNRQEPGKERELVAAISYRGGTTSYADSVQGRFTISRDNAKNTVYLQMNSLKPEVTAVYYCAKRYTYYSYDYWGQGTQVTVSS | high polyreactivity

Source: the nanobody polyreactivity screen of Harvey et al. (2022)
